The target in data set [1] is T1, dCas9-6His (UniProt Q99ZW2 SEQ:1-1368). Put plainly: dsDNA microarray, perfect match; PAM NGG. The conditions noted are these: tags: C-terminal 6His (pdCas9-bacteria, Addgene #44249 derived); label: Cy3-dUTP.
The target in the next data set is dCas9-scFv B1-182.1 (UniProt Q99ZW2 SEQ:1-1368). Put plainly: dsDNA microarray; detected via spike antigen and CR3022; PAM NGG. The conditions noted are these: tags: C-terminal anti-spike scFv B1-182.1 fusion and 6His (Addgene #186421); label: Cy3-dUTP.
The target in data set [2] is T2, dCas9-myc (UniProt Q99ZW2 SEQ:1-1368). Put plainly: dsDNA microarray, anti-myc; PAM NGG. The conditions noted are these: label: Cy3-dUTP.
Data set [3] addresses T2, dCas9-myc. Put plainly: no-PAM control; binding depended on PAM. The conditions noted are these: label: Cy3-dUTP.
Data set [4] has as its target T1, dCas9-6His. Put plainly: dsDNA microarray, anti-6His; PAM NGG; 37 C 16 h, 50 mM Tris pH 7.4, 150 mM NaCl. The conditions noted are these: tags: C-terminal 6His (pdCas9-bacteria, Addgene #44249 derived); label: Cy3-dUTP.
Data set [5] addresses T3, dCas9-HA (UniProt Q99ZW2 SEQ:1-1368). Put plainly: dsDNA microarray, anti-HA; PAM NGG. The conditions noted are these: label: Cy3-dUTP.
For data set [6], the target named is T1, dCas9-6His. Put plainly: off-target probe with PAM; dsDNA microarray. The conditions noted are these: tags: C-terminal 6His (pdCas9-bacteria, Addgene #44249 derived); label: Cy3-dUTP.
Data set [7] deals with T3, dCas9-HA. Put plainly: no-PAM control; binding depended on PAM. The conditions noted are these: label: Cy3-dUTP.

Numbering of substitutions follows the chain as printed.

B1: sgRNA spacer CACUGUU ; probe for G4 (ssRNA ; dsDNA)
RNA: CACUGUUUAACAAGCCCGUCGUUUUAGAGCUAGAAAUAGCAAGUUAAAAUAAGGCUAGUCCGUUAUCAACUUGAAAAAGUGGCACCGAGUCGGUGC
DNA 1: GAGCGACGCTGCACCAGACGGGCTTGTTAAACAGTGCCCGACCTCACCCG
DNA 2: CGGGTGAGGTCGGGCACTGTTTAACAAGCCCGTCTGGTGCAGCGTCGCTC
B1: the binding result with dCas9-6His [1] was “binds”.

B2: sgRNA spacer UCCAUAG ; probe for G5 (ssRNA ; dsDNA)
RNA: UCCAUAGAUUUCUCCGUGAGGUUUUAGAGCUAGAAAUAGCAAGUUAAAAUAAGGCUAGUCCGUUAUCAACUUGAAAAAGUGGCACCGAGUCGGUGC
DNA 1: GAGCGACGCTGCACCACTCACGGAGAAATCTATGGACCCGACCTCACCCG
DNA 2: CGGGTGAGGTCGGGTCCATAGATTTCTCCGTGAGTGGTGCAGCGTCGCTC
As for B2, the binding result in the data set with dCas9-scFv B1-182.1 and with dCas9-6His [1] was “binds” each time.

B3: sgRNA spacer AUAAAAG ; probe for G2 (ssRNA ; dsDNA)
RNA: AUAAAAGAAACCCUCCGCAUGUUUUAGAGCUAGAAAUAGCAAGUUAAAAUAAGGCUAGUCCGUUAUCAACUUGAAAAAGUGGCACCGAGUCGGUGC
DNA 1: GAGCGACGCTGCACCAATGCGGAGGGTTTCTTTTATCCCGACCTCACCCG
DNA 2: CGGGTGAGGTCGGGATAAAAGAAACCCTCCGCATTGGTGCAGCGTCGCTC
For B3, the binding result with dCas9-myc [2] is “binds”.

B4: sgRNA spacer AUAAAAG ; probe for G2, no PAM (ssRNA ; dsDNA)
RNA: B3 RNA
DNA 1: B3 DNA 1 with C15G
DNA 2: B3 DNA 2 with G36C
For the molecule B4, in the data set with dCas9-myc [3], the binding result is recorded as “no binding”.

B5: sgRNA spacer AGAGACU ; probe for G3 (ssRNA ; dsDNA)
RNA: AGAGACUGCCCGACACAUCUGUUUUAGAGCUAGAAAUAGCAAGUUAAAAUAAGGCUAGUCCGUUAUCAACUUGAAAAAGUGGCACCGAGUCGGUGC
DNA 1: GAGCGACGCTGCACCAAGATGTGTCGGGCAGTCTCTCCCGACCTCACCCG
DNA 2: CGGGTGAGGTCGGGAGAGACTGCCCGACACATCTTGGTGCAGCGTCGCTC
As for B5, in the data set with dCas9-6His [1], the binding result is reported as “binds”.

B6: sgRNA spacer CCGUACC ; probe for G1 (ssRNA ; dsDNA)
RNA: CCGUACCUAGAUACACUCAAGUUUUAGAGCUAGAAAUAGCAAGUUAAAAUAAGGCUAGUCCGUUAUCAACUUGAAAAAGUGGCACCGAGUCGGUGC
DNA 1: GAGCGACGCTGCACCATTGAGTGTATCTAGGTACGGCCCGACCTCACCCG
DNA 2: CGGGTGAGGTCGGGCCGTACCTAGATACACTCAATGGTGCAGCGTCGCTC
As for B6, the binding result in the data set with dCas9-6His [4] and in the data set with dCas9-HA [5] was “binds” throughout.

B7: sgRNA spacer CCGUACC ; probe for G2 (ssRNA ; dsDNA)
RNA: B6 RNA
DNA 1: B3 DNA 1
DNA 2: B3 DNA 2
As to B7, in the data set with dCas9-6His [6], the binding result is on record as “no binding”.

B8: sgRNA spacer CCGUACC ; probe for G1, no PAM (ssRNA ; dsDNA)
RNA: B6 RNA
DNA 1: B6 DNA 1 with C15G
DNA 2: B6 DNA 2 with G36C
With B8, the binding result in the data set with dCas9-HA [7] is listed as “no binding”.

These data come from patent US20240352452, “CRISPR-BASED PROTEIN BARCODING AND SURFACE ASSEMBLY” (The Brigham and Women's Hospital, Inc., published 2024).
